{"source": "patent US20200308257A1", "binders": {"B1": {"name": "VIS410 (antibody, V domains shown)", "VH": "QVQLLETGGGLVKPGQSLKLSCAASGFTFTSYAMHWVRQPPGKGLEWVAVVSYDGNYKYYADSVQGRFTISRDNSKNTLYLQMNSLRAEDTAVYYCAKDSRLRSLLYFEWLSQGYFNPWGQGTTLTVSS", "VL": "DIQMTQSPSSLSASVGDRVTITCRSSQSITFDYKNYLAWYQQKPGKAPKLLIYWGSYLESGVPSRFSGSGSGTDFTLTISSLQPEDFATYYCQQHYRTPPSFGQGTKVEIK"}}, "assay_in_all_cases": "cell-based or functional assay", "key": {"[1]": {"target": "H1N1 circulating viruses (n=18) and vaccines strains (n=3)"}, "[2]": {"target": "H3N2 circulating viruses (n=30) and vaccines strains (n=4)"}, "[3]": {"target": "all H3N2 and H1N1 circulating strains and vaccines strains (n=55 viruses)"}}}
{"binder": "B1", "values": [{"measurement": "Mean IC50, phenotypic IC50 assay", "setting": "[1]", "result": 0.6, "unit": "mg/L"}, {"measurement": "Mean IC50, phenotypic IC50 assay", "setting": "[2]", "result": 1.3, "unit": "mg/L"}, {"measurement": "Median IC50, phenotypic IC50 assay", "setting": "[3]", "result": 0.9, "unit": "mg/L"}]}
